The experiment deals with CcdB, biotinylated (E. coli (F-plasmid), UniProt P62554 1-101). Description: flow cytometry on cells. (In general: In flow cytometry, cells or beads pass a laser one at a time.)

Consider one molecule from publication doi:10.1101/2022.04.08.487678 (bioRxiv, 2022).

Usually Kd stands for the free concentration of one partner at which half of the binding sites on the other are occupied at equilibrium, for simple one-to-one binding.

Chain of CcdB, biotinylated (P62554 whole entry): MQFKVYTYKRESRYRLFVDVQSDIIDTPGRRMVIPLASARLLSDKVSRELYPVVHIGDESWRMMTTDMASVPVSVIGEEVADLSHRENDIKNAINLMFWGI

B1: CcdA wild type, displayed on the yeast surface (natural protein)
chain: MKQRITVTVDSDSYQLLKAYDVNISGLVSTTMQNEARRLRAERWKAENQEGMAEVARFIEMNGSFADENRDW
B1 had a Kd of 0.25 ± 0.05 nM.
